Assay results: US20250122304A1, “PRE-TARGETING” (Precirix N.V., priority 2022, published 2025)

How the values were obtained:
[1] = target: T1, human fibroblast activation protein (FAP) (human, UniProt Q12884 26-760); test: BLI (Octet), kinetics to human FAP, post TCO conjugation
T1 construct: also called human FAP; hFAP
T1 sequence: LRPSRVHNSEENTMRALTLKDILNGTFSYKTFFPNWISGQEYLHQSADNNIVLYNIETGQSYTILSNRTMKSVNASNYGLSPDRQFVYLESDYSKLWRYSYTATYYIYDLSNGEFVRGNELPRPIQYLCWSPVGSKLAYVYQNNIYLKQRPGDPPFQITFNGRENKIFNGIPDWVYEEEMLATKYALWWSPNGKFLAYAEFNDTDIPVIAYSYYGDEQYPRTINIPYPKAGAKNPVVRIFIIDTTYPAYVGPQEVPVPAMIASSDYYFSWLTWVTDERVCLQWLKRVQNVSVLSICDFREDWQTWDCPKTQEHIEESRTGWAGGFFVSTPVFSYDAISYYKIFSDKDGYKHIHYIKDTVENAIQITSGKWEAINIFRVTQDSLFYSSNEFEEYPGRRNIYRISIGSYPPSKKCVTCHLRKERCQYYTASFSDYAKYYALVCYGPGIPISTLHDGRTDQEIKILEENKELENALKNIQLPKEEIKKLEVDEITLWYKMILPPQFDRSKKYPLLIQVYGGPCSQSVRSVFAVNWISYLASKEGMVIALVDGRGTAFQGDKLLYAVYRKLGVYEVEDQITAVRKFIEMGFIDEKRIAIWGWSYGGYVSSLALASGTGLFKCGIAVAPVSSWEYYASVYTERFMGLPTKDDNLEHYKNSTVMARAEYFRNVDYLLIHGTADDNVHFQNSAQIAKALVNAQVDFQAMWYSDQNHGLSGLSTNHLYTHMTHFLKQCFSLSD
Description: Using the BLI technology on Octet system the binding kinetics towards human FAP were determined for each of the five VHHs pre- and post-TCO conjugation.

[2] = target: T2, human folate receptor alpha (FOLR1) (human, UniProt P15328 25-234, limits assumed); test: SPR (Biacore), kinetics to hFOLR1, pre TCO conjugation
T2 construct: also called hFOLR1; human FOLR1

[3] = target: T2, human folate receptor alpha (FOLR1); test: SPR (Biacore), kinetics to hFOLR1, post TCO conjugation
hFOLR1 [4] = target: T3, hFOLR1 (Homo sapiens, UniProt P15328); test: SPR click reaction with Tz-R3B23, span of relative response (Example 8, Table 20); details: Biacore
Description: Next, the click reaction was verified using SPR. 5 μg/mL recombinant hHER2 in 10 mM NaOAc pH 4.5 or 5 μg/mL recombinant hFOLR1 in 10 mM NaOAc pH 5.5 was immobilized on a Biacore Sensor Chip CM5 to a target level of 740 Response Units (RU) and 250 RU, respectively. […] For the VHH7 binding FOLR1 a VHH concentration of 5 nM was used, and the association and dissociation phases took 450 s and 900 s, respectively. […] As a negative control for the click reaction, we injected assay buffer (HBS) instead of the Tz-R3B23 over the flow cell. Using the Biacore evaluation software we determined the difference between the relative response before and after the click reaction with either the Tz-R3B23 or the negative control assay buffer. This difference is further on referred to as span.

hFOLR1 [5] = target: T3, hFOLR1; test: SPR (Biacore) binding kinetics before and after TCO conjugation (Example 8, Table 19)
Source text: Using Surface Plasmon Resonance (Biacore) we determined the binding kinetics of the unconjugated and TCO-conjugated VHH (TCO-VHH) for the respective target as described earlier for VHH2 and VHH8 (EP3718574A1).

human FAP = target: T4, human FAP (Homo sapiens, UniProt Q12884); test: BLI click reaction with Tz-R3B23 on TCO-VHHs bound to target, span (Example 7, Table 18); details: signal difference vs assay buffer
T4 sequence (Q12884 1-760): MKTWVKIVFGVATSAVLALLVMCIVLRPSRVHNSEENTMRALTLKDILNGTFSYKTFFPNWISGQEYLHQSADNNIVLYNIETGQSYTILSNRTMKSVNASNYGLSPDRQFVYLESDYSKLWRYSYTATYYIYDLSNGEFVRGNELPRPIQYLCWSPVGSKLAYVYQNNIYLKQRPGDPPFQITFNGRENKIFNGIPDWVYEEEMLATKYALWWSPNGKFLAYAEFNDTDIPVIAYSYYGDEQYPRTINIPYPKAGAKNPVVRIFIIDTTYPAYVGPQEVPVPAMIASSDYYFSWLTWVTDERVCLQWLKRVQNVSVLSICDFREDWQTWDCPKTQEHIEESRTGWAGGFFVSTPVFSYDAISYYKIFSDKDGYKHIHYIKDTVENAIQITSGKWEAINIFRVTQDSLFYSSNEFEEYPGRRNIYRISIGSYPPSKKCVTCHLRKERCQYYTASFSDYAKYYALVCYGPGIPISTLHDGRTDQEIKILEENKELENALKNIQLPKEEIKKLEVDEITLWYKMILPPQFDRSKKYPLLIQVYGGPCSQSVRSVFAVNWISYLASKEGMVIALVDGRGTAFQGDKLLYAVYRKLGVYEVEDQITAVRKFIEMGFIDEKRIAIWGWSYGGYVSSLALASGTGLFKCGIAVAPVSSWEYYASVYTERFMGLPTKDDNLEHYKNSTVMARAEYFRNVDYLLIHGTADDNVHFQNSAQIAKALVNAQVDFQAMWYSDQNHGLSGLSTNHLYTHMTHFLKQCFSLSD
Description: Next, Octet Streptavidin (SA) Biosensors were coated with 5 μg/mL biotinylated human FAP in assay buffer (HBS+0.5% BSA+0.1% Tween20) for 5 minutes. The sensors were then dipped in wells containing a 5 nM solution of the different VHHs (both TCO conjugated and unconjugated as control) for 20 minutes (association step) and further transferred to the assay buffer (dissociation step) for 30 minutes. After the dissociation phase, that simulates the lag time, the sensors were transferred to either a well containing 50 nM of a tetrazine-coupled, non-FAP binding R3B23 (Tz-R3B23) or to a well containing assay buffer as a control. This reaction was allowed to proceed for 20 minutes (experiment 1) or 30 minutes (experiment 2) after which the sensors were washed for 30 minutes in assay buffer. In the second experiment the TCO-VHHs were measured in duplicate (referred to as assay 1 and 2 of ‘experiment 2’ in the table below). Using the epitope binning function of ‘Octet Analysis Software’ we then determined the difference in signal between the VHHs incubated with Tz-R3B23 and the VHHs incubated with assay buffer. […] The span of unconjugated VHHs was considered as noise.

T3 sequence (P15328 25-234): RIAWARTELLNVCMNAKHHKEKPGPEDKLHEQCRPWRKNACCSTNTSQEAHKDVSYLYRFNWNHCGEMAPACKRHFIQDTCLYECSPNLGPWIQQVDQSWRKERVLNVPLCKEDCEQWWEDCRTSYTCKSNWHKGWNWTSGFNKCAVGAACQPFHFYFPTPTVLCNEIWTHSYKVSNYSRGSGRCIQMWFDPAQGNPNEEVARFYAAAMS
T2 sequence (P15328 25-234 limits assumed): as the sequence (P15328 25-234) above

B1: TCO-VHH7 (VHH)
VHH: QVQLQESGGGLVQAGGSLRLSCTASGTFSGRNAMAWYRQAPGKRRELVAGIRSDDSTNYVDSVKGRFTISRDNAKNTVYLQMNSLRPEDTAVYYCNLWPPVIGAGFGSWGQGTQVTVSS
modifications: trans-cyclooctene (TCO) conjugated via TCO-NHS; site(s) and number not stated
notes: also called TCO conjugated VHH7; VHH7 post conjugation
B1 showed a Kd [1] of 0.166 nM, a koff [1] of 0.000123 s⁻¹ and a kon [1] of 746000 M⁻¹ s⁻¹.

B2: VHH2 (VHH)
VHH: DVQLVESGGGLVQPGGSLRLSCAASESIFSRNHMSWYRQAPGKQRELAAIITSDGNTNYPDSVKGRFTISRDNAKNTVYLQMNSLKPEDTAVYYCNTFGRSVAGFYDYWGQGTQVTVSS
notes: Anti-FOLR1 VHH, tested before TCO conjugation; also called VHH VHH2; unconjugated VHH2
Work on B2 yielded a Kd [2] of 0.047 nM, a koff [2] of 0.000167 s⁻¹ and a kon [2] of 3.54e+06 M⁻¹ s⁻¹.

B3: TCO-VHH2 (VHH)
VHH: B2 VHH
modifications: trans-cyclooctene (TCO) conjugated via NHS-TCO; site(s) and number not stated
notes: also called TCO-conjugated VHH2; VHH2 post conjugation
B3 showed a Kd [3] of 0.0734 nM, a koff [3] of 0.000192 s⁻¹ and a kon [3] of 2.61e+06 M⁻¹ s⁻¹.

B4: VHH2: VHH, target FOLR1, SEQ ID NO 21 (protein)
VHH: B2 VHH
modifications: Full length sequence of VHH2
In the case of B4, the “Span of the Relative Response” value (hFOLR1 [4]; TCO-VHH bound on hFOLR1, Tz-R3B23 at 100 times molar excess) is reported as 12.3 RU, the “Span of the Relative Response” value (hFOLR1 [4]; Unconjugated VHH bound on hFOLR1, Tz-R3B23 at 100 times molar excess) is reported as 0.6 RU and the “binding kinetics after TCO conjugation” value (hFOLR1 [5]) is reported as “barely affected”. For the same molecule, the koff (hFOLR1 [5]; Post conjugation (TCO)) was 0.000192 s⁻¹, the kon (hFOLR1 [5]; Post conjugation (TCO)) was 2.61e+06 M⁻¹ s⁻¹ and the koff (hFOLR1 [5]; Pre conjugation) was 0.000167 s⁻¹. For the same molecule, the kon (hFOLR1 [5]; Pre conjugation) was 3.54e+06 M⁻¹ s⁻¹.

B5: TCO-VHH9 (VHH)
VHH: QVQLQESGGGLVQSGGSLRLSCVASGSISSINAMGWYRQAPGNKREWVAGITSGGSTNYADAVLGRFSIFRDNPKNTVYLQMNSLKPEDTAVYYCNTWPPSTFGSWGQGTQVTVSS
modifications: trans-cyclooctene (TCO) conjugated via TCO-NHS; site(s) and number not stated
notes: also called TCO conjugated VHH9; VHH9 post conjugation
B5 gave a Kd [1] of 0.951 nM, a koff [1] of 0.0012 s⁻¹ and a kon [1] of 1.26e+06 M⁻¹ s⁻¹.

B6: TCO-VHH1 (VHH)
VHH: DVQLVESGGGLVQPGGSLRLSCVASGRLSSSNSMAWYRQVPGKRRELVAGITGGGETNYADFVGGRFTISRDNAKNGLYLQLNGLKPEDTAAYYCNFWPPLINYWGQGTQVTVSS
modifications: trans-cyclooctene (TCO) conjugated via TCO-NHS; site(s) and number not stated
notes: also called TCO conjugated VHH1; VHH1 post conjugation
B6 was tested, and the Kd [1] was 0.0719 nM, the koff [1] was 4.99e-05 s⁻¹ and the kon [1] was 694000 M⁻¹ s⁻¹.

B7: TCO-VHH6 (VHH)
VHH: DVQLVESGGGLVQAGGSLRLSCAVSGSISSANSMGWYRQAPGKQRDVVAGLTTGGRSHYADSVKGRFTISRDNAKNTVYLQMNSLKAEDTAVYYCNLWPPVQGYWGQGTQVTVSS
modifications: trans-cyclooctene (TCO) conjugated via TCO-NHS; site(s) and number not stated
notes: also called TCO conjugated VHH6; VHH6 post conjugation
With B7 the Span (human FAP; Experiment 1, click reaction with 50 nM Tz-R3B23 for 20 minutes) was 0.0230, the Span (human FAP; Experiment 2, 1st assay, click reaction with 50 nM Tz-R3B23 for 30 minutes) was 0.0287 and the Span (human FAP; Experiment 2, 2nd assay, click reaction with 50 nM Tz-R3B23 for 30 minutes) was 0.0229. For the same molecule, the Kd [1] was 0.147 nM, the koff [1] was 0.000157 s⁻¹ and the kon [1] was 1.07e+06 M⁻¹ s⁻¹.

B8: TCO-VHH8 (VHH)
VHH: QVQLQESGGGTVQPGGSLRLSCAASGISVSIASMAWYRQAPGKQRELVAGIISGGSTNYADSVKGRFTISRDNAKKVVLLQMNSLKPEDTAVYYCNTYPPFVGPGATATWGQGTQVTVSS
modifications: trans-cyclooctene (TCO) conjugated via TCO-NHS; site(s) and number not stated
notes: also called TCO conjugated VHH8; VHH8 post conjugation
Molecule B8 has a Kd [1] of 0.671 nM, a koff [1] of 0.000559 s⁻¹ and a kon [1] of 833000 M⁻¹ s⁻¹.
